From PMC10764363

Molecular target: EEEV virus-like particles (VLPs: C, E2, and E1) (Eastern equine encephalitis virus) (UniProt Q4QXJ7)
Experiment: ELISA

LA3-LA3-LA3-LA3-LA3-Fc [LA3(5)-Fc] (from UniProt P01130) (Fc fusion)
fold increase in binding avidity: 100 fold
